The source of these data is patent US20020127222A1 (VEGENICS, published 2002).

The target in series [1] is chimeric receptor containing the extracellular domain of VEGFR-2, on Ba/F3 cells. Put plainly: cell-based or functional assay.
For series [2], the target named is T1, VEGFR-1-Ig (extracellular domain of human VEGFR-1 fused to the Fc portion of human IgG1) (human, UniProt P17948 27-758).
T1 construct: extracellular domain; Expressed in 293T cells, captured on protein A Sepharose; not shown: Fc portion of human IgG1
The series is described as follows: precipitation of 35S-labeled ligand from conditioned medium by receptor-Ig on protein A Sepharose, SDS-PAGE. The method, then: (§1) To further assess the interactions between VEGF-D and the VEGF receptors, VEGF-DΔNΔC was tested for its capacity to bind to soluble immunoglobulin fusion proteins comprising the extracellular domains of human VEGFR-1, human VEGFR-2 and human VEGFR-3. The corresponding fragment of VEGF-C, VEGF-CΔNΔC, was used for comparison. For binding experiments, 293T human embryonal kidney cells were transfected with plasmids encoding the soluble receptor-immunoglobulin fusion proteins VEGFR-1-Ig, VEGFR-2-Ig or VEGFR-3-Ig using the calcium-phosphate (Ca-phosphate) method. In these fusion proteins, the extracellular domain of the relevant VEGF receptor is fused to the Fc portion of human IgG₁. The cells were incubated for 24 hours after transfection, washed with Dulbecco's Modified Eagle's Medium (DMEM) containing 0.2% bovine serum albumin (BSA) and starved for 24 hours. Media were then collected and clarified by centrifugation, and fusion proteins were precipitated using protein A Sepharose beads. […] Metabolic labeling of 293-EBNA cells was carried out essentially as described (Joukov et al., 1997). The Sepharose beads were then washed twice with binding buffer (0.5% BSA, 0.02% Tween 20, 1 μg/ml heparin in phosphate buffered saline (PBS)) at 4° C. and once with PBS, boiled in Laemmli sample buffer, and proteins were then analyzed by SDS-PAGE.
(§2) In FIG. 3, precipitation of labeled VEGF₁₆₅, VEGF-CΔNΔC and VEGF-DΔNΔC by VEGFR-1-Ig, VEGFR-2-Ig and VEGFR-3-Ig was carried out as described above. The fusion proteins used for the precipitations are shown to the right. “Vector” denotes results of precipitations from medium derived from cells transfected with expression vector lacking sequence encoding the VEGFs. The molecular weight markers are indicated in kDa

Series [3] addresses T2, VEGFR-3-Ig (extracellular domain of human VEGFR-3 fused to the Fc portion of human IgG1) (human, UniProt P35916 25-775).
T2 construct: extracellular domain; Expressed in 293T cells, captured on protein A Sepharose; not shown: Fc portion of human IgG1
T2 sequence (looked up): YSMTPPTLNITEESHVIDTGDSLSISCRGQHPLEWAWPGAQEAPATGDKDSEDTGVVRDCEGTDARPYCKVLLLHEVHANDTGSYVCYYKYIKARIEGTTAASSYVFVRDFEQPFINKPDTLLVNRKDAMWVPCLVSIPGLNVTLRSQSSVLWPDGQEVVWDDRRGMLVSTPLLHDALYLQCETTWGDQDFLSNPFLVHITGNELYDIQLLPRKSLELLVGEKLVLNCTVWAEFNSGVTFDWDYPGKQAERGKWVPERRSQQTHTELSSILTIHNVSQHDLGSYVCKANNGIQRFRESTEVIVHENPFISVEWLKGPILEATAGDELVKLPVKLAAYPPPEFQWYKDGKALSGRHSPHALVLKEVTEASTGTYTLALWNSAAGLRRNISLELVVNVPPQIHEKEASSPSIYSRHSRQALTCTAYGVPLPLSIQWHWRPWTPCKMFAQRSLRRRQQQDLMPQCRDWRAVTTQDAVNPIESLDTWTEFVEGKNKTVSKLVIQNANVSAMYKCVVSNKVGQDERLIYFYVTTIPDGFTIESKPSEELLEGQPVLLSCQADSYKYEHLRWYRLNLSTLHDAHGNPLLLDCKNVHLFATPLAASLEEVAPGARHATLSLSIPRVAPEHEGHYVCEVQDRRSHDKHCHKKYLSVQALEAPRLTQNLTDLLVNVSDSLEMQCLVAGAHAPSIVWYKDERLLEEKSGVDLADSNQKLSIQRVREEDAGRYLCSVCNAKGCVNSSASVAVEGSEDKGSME
The description is as above. On the procedure: as §1, §2

The target in series [4] is T3, VEGFR-2-Ig (extracellular domain of human VEGFR-2 fused to the Fc portion of human IgG1) (human, UniProt P35968 20-764).
T3 construct: extracellular domain; Expressed in 293T cells, captured on protein A Sepharose; not shown: Fc portion of human IgG1
Described as above. The method, then: as §1, §2

Series [5] deals with the molecule itself. Put plainly: size exclusion chromatography and SDS-PAGE (self-association).

T1 sequence (P17948 27-758): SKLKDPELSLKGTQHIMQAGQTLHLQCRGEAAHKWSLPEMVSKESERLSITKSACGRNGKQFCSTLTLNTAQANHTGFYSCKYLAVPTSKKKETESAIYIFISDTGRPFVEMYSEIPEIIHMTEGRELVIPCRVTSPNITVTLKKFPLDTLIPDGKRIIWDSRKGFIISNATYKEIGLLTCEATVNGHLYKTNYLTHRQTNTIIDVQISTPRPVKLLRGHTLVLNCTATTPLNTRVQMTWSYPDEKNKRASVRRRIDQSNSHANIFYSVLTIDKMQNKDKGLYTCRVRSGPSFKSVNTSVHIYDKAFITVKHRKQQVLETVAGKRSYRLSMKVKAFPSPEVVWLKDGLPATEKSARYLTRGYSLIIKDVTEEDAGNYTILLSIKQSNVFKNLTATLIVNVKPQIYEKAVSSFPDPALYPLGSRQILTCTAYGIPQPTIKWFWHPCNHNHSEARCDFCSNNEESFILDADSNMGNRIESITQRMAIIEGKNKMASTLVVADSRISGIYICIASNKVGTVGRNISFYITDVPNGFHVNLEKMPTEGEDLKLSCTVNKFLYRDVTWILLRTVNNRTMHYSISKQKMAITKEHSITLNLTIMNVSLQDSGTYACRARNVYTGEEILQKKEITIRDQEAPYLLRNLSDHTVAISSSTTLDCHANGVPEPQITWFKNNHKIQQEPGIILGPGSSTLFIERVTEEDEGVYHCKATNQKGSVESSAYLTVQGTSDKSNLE
T3 sequence (P35968 20-764): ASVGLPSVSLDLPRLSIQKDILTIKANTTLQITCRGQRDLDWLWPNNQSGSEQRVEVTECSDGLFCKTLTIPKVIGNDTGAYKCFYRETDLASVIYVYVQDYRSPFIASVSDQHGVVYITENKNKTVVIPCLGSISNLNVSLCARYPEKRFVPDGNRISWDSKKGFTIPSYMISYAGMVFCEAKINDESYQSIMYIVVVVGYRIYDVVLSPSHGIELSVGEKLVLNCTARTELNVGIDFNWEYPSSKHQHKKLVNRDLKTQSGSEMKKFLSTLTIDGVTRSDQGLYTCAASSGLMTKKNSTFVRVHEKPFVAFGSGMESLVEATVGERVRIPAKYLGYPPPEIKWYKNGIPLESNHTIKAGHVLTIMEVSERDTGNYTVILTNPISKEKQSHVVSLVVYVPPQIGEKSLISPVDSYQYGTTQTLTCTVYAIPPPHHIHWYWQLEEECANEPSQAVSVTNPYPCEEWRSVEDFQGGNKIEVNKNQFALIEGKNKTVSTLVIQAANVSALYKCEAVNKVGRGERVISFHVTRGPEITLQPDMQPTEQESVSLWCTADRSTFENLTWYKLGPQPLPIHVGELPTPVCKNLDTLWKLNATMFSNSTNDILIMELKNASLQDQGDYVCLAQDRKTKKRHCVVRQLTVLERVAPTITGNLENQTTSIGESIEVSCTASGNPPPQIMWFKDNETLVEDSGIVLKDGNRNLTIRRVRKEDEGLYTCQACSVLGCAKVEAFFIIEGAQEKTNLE

The molecule “VEGF-DΔNΔC non-covalent homodimer (size exclusion peak 2, 49 kDa) (from UniProt O43915 93-201) (ligand)” had a VEGFR-2 binding activity (Ba/F3 cell bioassay) of size exclusion peak 1 (% of that in peak 2) in series [1] of 1.

B1: human VEGF165 (ligand, UniProt P15692-4 27-191, looked up)
chain: APMAEGGGQNHHEVVKFMDVYQRSYCHPIETLVDIFQEYPDEIEYIFKPSCVPLMRCGGCCNDEGLECVPTEESNITMQIMRIKPHQGQHIGEMSFLQHNKCECRPKKDRARQENPCGPCSERRKHLFVQDPQTCKCSCKNTDSRCKARQLELNERTCRCDKPRR
notes: 35S-labeled conditioned medium
Consider B1, for which the binding result in series [2] is on record as “binds”; in series [3] it was “no binding”.

B2: VEGF-DΔNΔC (human VEGF-D amino acid residues 93 to 201 tagged with the FLAG octapeptide adjacent to the N-terminus) (ligand, not shown: small tags and cut ends)
chain: FYDIETLKVIDEEWQRTQCSPRETCVEVASELGKSTNTFFKPPCVNVFRCGGCCNEESLICMNTSTSYISKQLFEISVPLTSVPELVPVKVANHTGCKCLPTAPRHPYS
notes: purified from COS cells for the enzyme immunoassay; human VEGF-D?N?C
B2: the binding result in series [2] is reported as “no binding”; in series [3] it was “binds”; in series [4] it was “binds”.

B3: VEGF-DΔNΔC monomer (size exclusion peak 3, 25 kDa) (ligand)
chain: FYDIETLKVIDEEWQRTQCSPRETCVEVASELGKSTNTFFKPPCVNVFRCGGCCNEESLICMNTSTSYISKQLFEISVPLTSVPELVPVKVANHTGCKCLPTAPRHPYS
notes: also called VEGF-D?N?C monomer; monomeric form of VEGF-D?N?C; not shown: FLAG octapeptide tag at the N-terminus
In the case of B3, in series [5], the binding result is “binds”.
